Measured values published in patent publication US20190031718A1.
pKd: −log10 of the molar value.

Legend:
[1] = target: TAT-CaM (HIV; human); test: BLI, dissociation upon exposure to EDTA
[2] = target: TAT-CaM (HIV; human); test: BLI (Octet QK), biotinylated TAT-CaM on streptavidin sensors, cargo as analyte, global 1:1 association-then-dissociation fit
[3] = target: TAT-CaM (HIV; human); test: BLI, dissociation after moving sensors to buffer with 10 mM EDTA (1 µM sample)
[4] = target: CBS-myoglobin; test: BLI, biotinylated CPP-adapter on streptavidin sensors, CBS-myoglobin as analyte (1 µM to 63 nM), one-state association-then-dissociation fit
[5] = target: CBS-myoglobin; test: BLI, dissociation in buffer with EDTA
[6] = target: CBS-myoglobin; test: BLI, sensor exposed to the highest analyte concentration, then dipped into buffer with EDTA
[7] = target: troponin inhibitory peptide-myoglobin; test: BLI, biotinylated TAT-troponin on streptavidin sensors, troponin inhibitory peptide-myoglobin as analyte (1 µM to 63 nM), one-state association-then-dissociation fit
[8] = target: troponin inhibitory peptide-myoglobin; test: BLI, sensor exposed to the highest analyte concentration, then dipped into buffer with EDTA
[9] = target: TAT-CaM (HIV; human); test: BLI (Octet QK), biotinylated TAT-CaM on streptavidin sensors, eNOS as analyte, global 1:1 association-then-dissociation fit

Sequence of endothelial nitric oxide synthase (enzyme) (P29473 2-1205): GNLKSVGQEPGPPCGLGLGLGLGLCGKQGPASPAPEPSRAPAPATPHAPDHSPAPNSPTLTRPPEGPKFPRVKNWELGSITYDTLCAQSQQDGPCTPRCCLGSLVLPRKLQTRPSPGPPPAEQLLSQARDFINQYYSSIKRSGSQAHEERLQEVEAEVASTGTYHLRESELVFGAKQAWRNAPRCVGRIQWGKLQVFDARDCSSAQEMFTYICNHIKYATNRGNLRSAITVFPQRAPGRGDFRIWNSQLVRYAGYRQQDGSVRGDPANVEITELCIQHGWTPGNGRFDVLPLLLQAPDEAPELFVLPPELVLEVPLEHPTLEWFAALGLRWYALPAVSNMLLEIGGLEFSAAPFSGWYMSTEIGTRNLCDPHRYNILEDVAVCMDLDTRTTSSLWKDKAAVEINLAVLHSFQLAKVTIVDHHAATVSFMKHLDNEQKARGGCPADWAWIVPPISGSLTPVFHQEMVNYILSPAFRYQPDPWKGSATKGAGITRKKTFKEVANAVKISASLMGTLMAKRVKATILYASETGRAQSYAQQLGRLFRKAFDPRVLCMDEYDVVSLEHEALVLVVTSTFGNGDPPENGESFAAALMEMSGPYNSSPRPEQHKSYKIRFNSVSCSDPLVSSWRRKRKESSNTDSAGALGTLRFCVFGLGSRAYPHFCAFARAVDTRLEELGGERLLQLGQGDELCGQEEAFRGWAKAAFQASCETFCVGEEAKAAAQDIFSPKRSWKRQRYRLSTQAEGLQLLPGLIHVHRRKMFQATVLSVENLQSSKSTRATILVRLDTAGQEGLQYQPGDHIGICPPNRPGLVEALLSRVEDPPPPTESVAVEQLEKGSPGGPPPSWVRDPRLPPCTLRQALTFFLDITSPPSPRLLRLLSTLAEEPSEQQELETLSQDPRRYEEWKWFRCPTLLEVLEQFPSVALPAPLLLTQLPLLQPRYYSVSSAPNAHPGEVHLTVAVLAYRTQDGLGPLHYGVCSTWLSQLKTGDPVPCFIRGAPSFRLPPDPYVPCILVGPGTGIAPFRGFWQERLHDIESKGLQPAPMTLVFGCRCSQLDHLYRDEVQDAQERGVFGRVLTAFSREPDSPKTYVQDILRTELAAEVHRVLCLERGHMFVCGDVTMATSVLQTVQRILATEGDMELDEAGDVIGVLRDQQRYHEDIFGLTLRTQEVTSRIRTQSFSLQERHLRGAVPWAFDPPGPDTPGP
Sequence of CBS-HRP (P00433 31-338): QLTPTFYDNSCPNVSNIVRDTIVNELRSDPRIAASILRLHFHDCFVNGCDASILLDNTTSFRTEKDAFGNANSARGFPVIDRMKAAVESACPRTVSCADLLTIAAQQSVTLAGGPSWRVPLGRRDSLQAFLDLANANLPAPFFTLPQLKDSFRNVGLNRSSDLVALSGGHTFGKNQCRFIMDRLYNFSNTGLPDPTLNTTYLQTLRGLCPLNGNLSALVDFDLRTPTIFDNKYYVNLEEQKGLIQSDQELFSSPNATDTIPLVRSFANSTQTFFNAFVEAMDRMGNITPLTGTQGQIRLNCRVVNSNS

| Substance | koff (EDTA) [1] | pKd [2] | koff [2] | kon [2] | koff (EDTA) [3] | kon [4] | koff (EDTA) [5] | koff (EDTA) [6] | further results |
| --- | --- | --- | --- | --- | --- | --- | --- | --- | --- |
| CBS-HRP (from UniProt P00433 31-338) (enzyme) | 0.1 s⁻¹ | 6.80 | 0.00028 s⁻¹ | 1700 M⁻¹ s⁻¹ | 0.2 s⁻¹ |  |  |  |  |
| CBS-myoglobin | 0.1 s⁻¹ | 9.05 | 5.5e-05 s⁻¹ | 59000 M⁻¹ s⁻¹ | 0.09 s⁻¹ |  |  |  |  |
| CBS-β-Gal (enzyme) | 0.1 s⁻¹ | 7.14 | 0.00067 s⁻¹ | 9200 M⁻¹ s⁻¹ | 0.05 s⁻¹ |  |  |  |  |
| SAP(E)-CaM |  |  |  |  |  | 9400 M⁻¹ s⁻¹ | 0.1 s⁻¹ | 0.2 s⁻¹ | pKd [4]: 7.88; koff [4]: 0.00013 s⁻¹ |
| TAT-CaM 2.0 (from UniProt P0DP23 2-149) |  |  |  |  |  | 4900 M⁻¹ s⁻¹ | 0.1 s⁻¹ | 0.17 s⁻¹ |  |
| TAT-calmodulin like protein 3 (from UniProt P27482 1-149) |  |  |  |  |  | 6100 M⁻¹ s⁻¹ | 0.1 s⁻¹ | 0.07 s⁻¹ | pKd [4]: 7.53; koff [4]: 0.00018 s⁻¹ |
| TAT-troponin |  |  |  |  |  |  |  |  | kon [7]: 3700 M⁻¹ s⁻¹; koff (EDTA) [8]: 0.018 s⁻¹ |
| endothelial nitric oxide synthase (enzyme) |  |  |  |  |  |  |  |  | pKd [9]: 7.82; koff [9]: 0.00018 s⁻¹; kon [9]: 12000 M⁻¹ s⁻¹ |
